Reference: patent publication US20230126400A1 (Alector, published 2023)
Numbering of substitutions follows the chain as printed.

B1: anti-MS4A4A antibody 4A-8 (antibody, V domains shown)
VH: EVKLVESGGGLVQPGGSLKLSCATSGFTFSDYYMYWVRQTPEKRLEWVAYINNGGGSTYYPDTVKGRFTISRDNAKNTLYLQMSRLKSEDTAMYYCARQGNLIYYSGSSLFAYWGQGTMVTVSS
VL: DVLMTQTPLSLPVSLGDQASISCRSSQSIVHSNRNTYLEWYVQKPGQSPKLLIYKVSNRFSGVPDRFSGSGSGTDFTLKISRVEAEDLGVYYCFQGSHVPWTFGGGTKLEIK
notes: murine hybridoma antibody
B2: anti-MS4A4A antibody 4A-9 (antibody, V domains shown)
VH: DVQLQESGPGLVKPSQSLSLTCSVTGYSITSGYYWNWIRQFPGNKLEWMGYISYDGNNKYNPSLKNRISITRDTSKNQFFLKLNSVTTEDTATYYCANRDYWGQGTTLTVSS
VL: B1 VL with S28N, R34G, N35I, Y41F, V42L, K50T, V56I, W101Y, E110D
notes: murine hybridoma antibody
B3: anti-MS4A4A antibody 4A-11 (antibody, V domains shown)
VH: EVKLEESGGGLVQPGGSMKLSCAASGFTFSDAWMDWVRQSPEKGLEWVAEIRSKTDNHATYFAESVKGRFTISRDDSKSSVYLQMNSLRAGDTGIYYCYGSTFASWGQGTLVTVSS
VL: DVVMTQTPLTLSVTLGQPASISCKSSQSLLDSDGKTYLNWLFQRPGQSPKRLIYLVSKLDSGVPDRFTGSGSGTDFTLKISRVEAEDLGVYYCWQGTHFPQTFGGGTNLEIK
notes: murine hybridoma antibody
B4: anti-MS4A4A antibody 4A-15 (antibody, V domains shown)
VH: EIQLQQTGPDLVKPGASVKISCKASGYSFTDYVILWVKQSHGKTLEWIGHINPYYANSDYNVNFRGKATLTVDKSSSTAHMQLNSLTSEDSAVYYCVRYGSGMDYWGQGTSVTVSS
VL: B1 VL with N33D, R34G, V42L, V99F, W101L, G105A, I111L
notes: murine hybridoma antibody
B5: anti-MS4A4A antibody 4A-19 (antibody, V domains shown)
VH: QVQLQQSGAELARPGASVKLSCKASGYSFIDYGISWVKQRTGQGLEWIGEIYPRSGNTYYNEKFKGKATLTADKSSSTAYMELRSLTSEDSAVYFCARKGLLRDFDYWGQGTTLTVSS
VL: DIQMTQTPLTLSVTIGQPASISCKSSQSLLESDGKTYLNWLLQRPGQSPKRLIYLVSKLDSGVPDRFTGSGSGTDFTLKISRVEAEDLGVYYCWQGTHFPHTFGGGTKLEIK
notes: murine hybridoma antibody
B6: anti-MS4A4A antibody 4A-2 (antibody, V domains shown)
VH: QIQLVQSGPELKKPGETVKISCKASGYTFVDYEMNWVKQAPGKGLEWLGWINTYTGEPTYADDFQGRFAFSLVTSVSTAYLQINNLKHEDMATYLCTRNYYYGNGDVMDYWGQGTSVTVSS
VL: QIVLTQSPAIMSASPGEKVTITCSASSSVSYIHWFQQKPGTSPKLWIYSTSNLASGVPARFSGSGSGTSYSLTISRMEAEDAATYYCQQRTGFPLTFGGGTQLEIK
notes: murine hybridoma antibody

Molecular target: T1, human MS4A6A ECL2 peptide (amino acid residues 138-185) (human)
T1 peptide: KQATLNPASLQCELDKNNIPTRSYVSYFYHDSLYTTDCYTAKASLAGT
Experiment: array SPR
Experimental: (§1) Binding kinetic characterization of the anti-MS4A4A antibodies to MS4A4A ECL1 and ECL2 and to MS4A6A ECL1 and ECL2 peptides was performed by Carterra (South San Francisco, Calif.) using a proprietary array Surface Plasmon Resonance (SPR) instrument (MX-96) as follows. Antibodies were captured onto a CMD500D chip (Xantec # SPMX CMD500D) using the Continous Flow Microspotter (CFM). First, the chip was activated with 100 mM MES pH 5.5, 100 μL EDC (133 mM final), 100 μL of S-NHS (33.3 mM final), for 7 minutes. […] Anti-MS4A4A hydridoma supernatant or purified anti-MS4A4A antibodies were diluted in HBS-EP+ buffer (Teknova Cat # H8022) and then printed as duplicates with a 20 minute and a 5-minute print from the same sample solution.
(§2) These were then injected on the chip for five minutes, followed by a seven-minute dissociation period at 8 uL per second in a non-regenerative kinetic series. Duplicate measurements for each anti-MS4A4A antibody were taken to ensure reproducibility. Association rates (Kon) and dissociation rates (Koff) were calculated using a single one-to-one Langmuir binding model. The equilibrium dissociation constant (KD) was calculated as the ration of Koff/Kon.

Binder	binding result
B1	no binding (tested: 2000 nM)
B2	no binding (tested: 2000 nM)
B3	no binding (tested: 2000 nM)
B4	no binding (tested: 2000 nM)
B5	no binding (tested: 2000 nM)
B6	no binding (tested: 2000 nM)

Molecular target: T2, human MS4A6A ECL1 peptide (amino acid residues 68-85) (human)
T2 peptide: SASFSPNFTQVTSTLLNS
Experiment: array SPR
Experimental: as §1, §2

Binder	binding result
B1	no binding (tested: 2000 nM)
B2	no binding (tested: 2000 nM)
B3	no binding (tested: 2000 nM)
B4	no binding (tested: 2000 nM)
B5	no binding (tested: 2000 nM)
B6	no binding (tested: 2000 nM)

Molecular target: human MS4A4A (human, UniProt Q96JQ5 1-239)
Experiment: FACS, HEK293, supernatant
Experimental: (§3) Positive clones identified above were expanded and then rescreened for specificity against HEK293 cells overexpressing human MS4A4A or cyno MS4A4A and parental HEK293 cells. These experiments were performed using supernatants from hybridoma clones which had undergone further expansion after initial selection. Briefly, previously prepared, cryopreserved transiently-transfected cells were labeled with LIVE/DEAD Fixable Aqua Dead Cell Stain Kit (ThermoFisher Scientific L34957) on ice for 30 minutes. After a wash with PBS, 2×10⁵ cells were aliquoted per well in 96-well U-bottom plates and incubated with 50 μl of culture supernatant on ice for 30 minutes. […] Following this secondary incubation, the cells were again washed twice with ice-cold FACS buffer and resuspended in a final volume of 200 μl of FACS buffer. Analysis was performed on a FACS Canto system (BD Biosciences), with sort gates drawn to exclude dead (Aqua-positive) cells. Positive clones (fold change of 1.8 or greater) were carried forward for further testing.

Binder	Human 4A:parental cell ratio [ratio]
B1	5.7
B2	8.2
B3	9.12
B4	8.13
B5	1.86
B6	20.2

Molecular target: T3, cynomolgus (cyno) MS4A4A (cynomolgus)
T3 construct: also called cy4A; Cyno 4A
Experiment: FACS, HEK293, supernatant
Experimental: as §3

Binder	Cyno 4A:parental cell ratio [ratio]
B1	3.3
B2	3.46
B3	2.11
B4	4.67
B5	1.51
B6	9.63

Molecular target: T4, BSA-conjugated human MS4A4A ECL2 peptide (amino acid residues 159-179) (human, conjugated to BSA (site not stated))
T4 construct: also called MS4A4A-ECL2 BSA conjugated peptide; BSA-MS4A4A-ELC2 peptide
T4 peptide: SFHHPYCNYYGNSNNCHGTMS
Experiment: ELISA, supernatant
Experimental: (§4) Briefly, 96-well polystyrene plates were coated with 1-10 μg/ml of synthetic free or BSA-conjugated peptides in coating buffer (0.05M carbonate buffer, pH9.6, Millipore Sigma C3041) overnight at 4° C. Coated plates were then blocked with ELISA diluent (PBS+0.5% BSA+0.05% Tween20) for 1-hour, washed 3×300 μL in PBST (PBS+0.05% Tween20, Thermo Cat#28352), and then the antibodies were added to the plate ([…]). After 30 mins incubation (room temperature, with shaking), the plates were washed 3×300 μL in PBST. […] After a final set of washes (3×300 μL in PBST), 50 μL of TMB substrate (BioFx TMBW-1000-01) was added and the reaction was then quenched after 5-10 mins with 50 μL of stop solution (BioFx BSTP-1000-01). The quenched reaction wells were detected for absorbance at 650 nm with a BioTek Synergy Microplate Reader using GENS 2.04 software.

Binder	binding result
B1	binds
B2	binds
B3	binds
B4	binds
B5	binds
B6	binds

Molecular target: T5, human MS4A4A ECL1 peptide (amino acid residues 86-98) (human)
T5 construct: synthetic peptide
T5 peptide: CMASNTYGSNPIS
Experiment: ELISA, hybridoma supernatant
Experimental: as §4

Binder	binding result
B1	no binding
B2	no binding
B3	no binding
B4	no binding
B5	no binding
B6	no binding
